The values below come from US20230266324A1 (Hoffmann-La Roche, published 2023).

The target of the experiment is T1, PD-L1 (human, UniProt Q9NZQ7 19-290).
T1 construct: whole, on cells; Endogenous PD-L1 on in vitro generated human DCs (iDCs, mDCs); also called B7-H1; B7-4
Description: confocal imaging of co-localization on the surface of human mDCs.

T1 sequence (Q9NZQ7 19-290): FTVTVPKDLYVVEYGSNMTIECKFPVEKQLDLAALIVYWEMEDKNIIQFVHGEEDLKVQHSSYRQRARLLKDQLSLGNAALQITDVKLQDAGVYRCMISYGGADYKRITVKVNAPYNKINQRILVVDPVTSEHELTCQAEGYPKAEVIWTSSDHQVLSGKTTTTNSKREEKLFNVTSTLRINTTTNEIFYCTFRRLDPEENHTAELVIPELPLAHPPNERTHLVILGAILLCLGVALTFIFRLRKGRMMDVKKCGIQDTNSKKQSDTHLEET

B1: CD80 (ligand, human, UniProt P33681 35-288, looked up)
chain: VIHVTKEVKEVATLSCGHNVSVEELAQTRIYWQKEKKMVLTMMSGDMNIWPEYKNRTIFDITNNLSIVILALRPSDEGTYECVVLKYEKDAFKREHLAEVTLSVKADFPTPSISDFEIPTSNIRRIICSTSGGFPEPHLSWLENGEELNAINTTVSQDPETELYAVSSKLDFNMTTNHSFMCLIKYGHLRVNQTFNWNTTKQEHFPDNLLPSWAITLISVNGIFVICCLTYCFAPRCRERRRNERLRRESVRPV
notes: whole, on cells; Endogenous CD80 on human DCs, seen by confocal imaging; also called B7-1; B7.1
On to B1, for which the binding result is on record as “binds”.
